Molecular target: the molecule itself
Test: […]; 20 mM sodium phosphate pH 7, 100 mM NaCl, 2 mM TCEP

B1: human tripartite motif-containing protein 25 (TRIM25), residues 183-380 (domain or fragment, UniProt Q14258 183-380, looked up)
chain: HKTCSPASLSQASADLEATLRHKLTVMYSQINGASRALDDVRNRQQDVRMTANRKVEQLQQEYTEMKALLDASETTSTRKIKEEEKRVNSKFDTIYQILLKKKSEIQTLKEEIEQSLTKRDEFEFLEKASKLRGISTKPVYIPEVELNHKLIKGIHQSTIDLKNELKQCIGRLQEPTPSSGDPGEHDPASTHKSTRPV
notes: not shown: His6, N-terminal, cleaved; SUMO, N-terminal, cleaved
stoichiometry N: 2
